Target: Leminorella grimontii GatC (Leminorella grimontii)
Experiment: crystal structure

stoichiometry N: 2
Substance: Leminorella grimontii GatC (natural protein)
